Changes are numbered by the printed parent chain. Names may count otherwise. Read-outs that look alike come from different tables or passages of the source.
T1: His-TRAF6_(310-522) (human, UniProt Q9Y4K3 310-522)
T1 chain: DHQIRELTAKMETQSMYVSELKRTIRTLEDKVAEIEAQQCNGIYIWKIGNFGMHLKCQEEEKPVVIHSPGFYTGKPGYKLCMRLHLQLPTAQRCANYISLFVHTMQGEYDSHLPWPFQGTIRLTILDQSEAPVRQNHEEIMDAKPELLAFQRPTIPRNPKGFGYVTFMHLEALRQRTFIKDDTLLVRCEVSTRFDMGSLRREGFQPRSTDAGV

T2: GST-LMP1_(181-386) Y384D (Epstein-Barr virus, UniProt P03230 181-386, Y384D)
T2 construct: also called LMP1 Y384D; source: E. coli DH5α or BL21 Codon Plus RIPL, purified (glutathione Sepharose 4B)
T2 sequence: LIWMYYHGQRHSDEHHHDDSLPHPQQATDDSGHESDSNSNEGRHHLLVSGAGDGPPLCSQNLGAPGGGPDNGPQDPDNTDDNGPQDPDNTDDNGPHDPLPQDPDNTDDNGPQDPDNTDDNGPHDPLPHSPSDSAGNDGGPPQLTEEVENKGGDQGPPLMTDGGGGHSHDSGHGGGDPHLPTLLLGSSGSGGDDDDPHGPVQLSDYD

T3: GST-CD40_(216-277) E235Q (human, UniProt P25942 216-277, E235Q)
T3 construct: also called CD40 E235Q; E to Q mutation at P0 of CD40; source: E. coli DH5α or BL21 Codon Plus RIPL, purified (glutathione Sepharose 4B)
T3 sequence: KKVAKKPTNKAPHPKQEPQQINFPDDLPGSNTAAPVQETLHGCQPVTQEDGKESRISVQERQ

T4: GST-RANK_(314-355) E346Q (human, UniProt Q9Y6Q6 314-355, E346Q)
T4 construct: also called RANK E346Q; E to Q mutation at P0 of RANK; source: E. coli DH5α or BL21 Codon Plus RIPL, purified (glutathione Sepharose 4B)
T4 chain: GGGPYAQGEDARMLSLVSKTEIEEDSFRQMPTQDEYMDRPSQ

T5: His-TRAF6_(310-522) R392A (human, UniProt Q9Y4K3 310-522, R392A)
T5 construct: also called TRAF6 R392A; source: E. coli BL21 Codon Plus RIPL, purified (Ni-NTA)
T5 sequence: T1 chain with R83A

T6: His-TRAF6_(310-522) K469A (human, UniProt Q9Y4K3 310-522, K469A)
T6 construct: also called TRAF6 K469A; source: E. coli BL21 Codon Plus RIPL, purified (Ni-NTA)
T6 sequence: T1 chain with K160A

T7: TRAF6_(346-504) for NMR (human, UniProt Q9Y4K3 346-504, uniformly labeled with 15N)
T7 construct: also called 15N-labeled TRAF6; source: E. coli Rosetta2 DE3, purified (Ni-NTA, SUMO cleavage, second Ni-NTA, SEC)
T7 sequence: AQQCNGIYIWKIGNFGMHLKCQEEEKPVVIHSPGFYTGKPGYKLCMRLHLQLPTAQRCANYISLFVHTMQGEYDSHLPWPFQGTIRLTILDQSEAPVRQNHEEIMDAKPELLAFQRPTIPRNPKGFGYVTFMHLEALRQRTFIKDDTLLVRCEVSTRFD

B1: His-TRAF5_(363-557) (domain or fragment)
chain: DQRLAVLEEETNKHDTHINIHKAQLSKNEERFKLLEGTCYNGKLIWKVTDYKMKKREAVDGHTVSIFSQSFYTSRCGYRLCARAYLNGDGSGRGSHLSLYFVVMRGEFDSLLQWPFRQRVTLMLLDQSGKKNIMETFKPDPNSSSFKRPDGEMNIASGCPRFVAHSVLENAKNAYIKDDTLFLKVAVDLTDLEDL
notes: source: E. coli BL21 Codon Plus RIPL, purified (Ni-NTA)
B2: His-TRAF6_(310-522) (domain or fragment)
chain: T1 chain
notes: also called His-T6; recombinant TRAF6 wild-type; source: E. coli BL21 Codon Plus RIPL, purified (Ni-NTA)
B3: LMP1-derived CTAR2 peptide 11 (amino acids 357-386, 30mer) (peptide)
peptide: PHLPTLLLGSSGSGGDDDDPHGPVQLSYYD
notes: source: synthetic peptide, spot-synthesised on cellulose membrane
B4: GST-CD40_(216-277) (domain or fragment)
chain: T3 sequence with Q20E
notes: source: E. coli DH5α or BL21 Codon Plus RIPL, purified (glutathione Sepharose 4B)
B5: LMP1-derived CTAR2 peptide 8 (amino acids 371-386, 16mer) (peptide)
peptide: GDDDDPHGPVQLSYYD
notes: as for B3
B6: GST-LMP1_(181-386) (domain or fragment)
chain: T2 sequence with D204Y
notes: also called LMP1 wild-type; LMP1 signalling domain; source: E. coli DH5α or BL21 Codon Plus RIPL, purified (glutathione Sepharose 4B)
B7: TRAF6 inhibitor peptide DRQIKIWFQNRRMKWKK-RKIPTEDEY (peptide)
peptide: DRQIKIWFQNRRMKWKKRKIPTEDEY
notes: also called RANK-derived peptide; source: bought: Novus Biologicals NBP2-26506
B8: His-TRAF1_(226-416) (domain or fragment)
chain: RERILSLEQRVVELQQTLAQKDQALGKLEQSLRLMEEASFDGTFLWKITNVTRRCHESACGRTVSLFSPAFYTAKYGYKLCLRLYLNGDGTGKRTHLSLFIVIMRGEYDALLPWPFRNKVTFMLLDQNNREHAIDAFRPDLSSASFQRPQSETNVASGCPLFFPLSKLQSPKHAYVKDDTMFLKCIVETST
notes: as for B1

Columns and labels:
[1] = biological target: T1, His-TRAF6_(310-522)
[2] = biological target: B6; assay: pull-down; settings: both partners purified
[3] = biological target: T2, GST-LMP1_(181-386) Y384D; assay: AlphaScreen or HTRF; AlphaScreen PPI assay: His-TRAF and GST-LMP1, GST-CD40 or GST-RANK in PBS with 0.5% BSA and 0.1% Tween-20, 1 h at RT; standard 300 nM His-TRAF and 100 nM GST protein if not indicated otherwise; for KD His-TRAF6 at different concentrations, fit one site-specific binding with hill slope; settings: both partners purified
[4] = biological target: T3, GST-CD40_(216-277) E235Q; assay: as above; settings: both partners purified
[5] = biological target: T4, GST-RANK_(314-355) E346Q; assay: as above; settings: both partners purified
[6] = biological target: GST-CD40_(216-277) E235Q (human, UniProt P25942 216-277, E235Q)
[7] = biological target: B2; assay: peptide or protein array; peptides spot-synthesised on cellulose membranes in duplicate, incubated with 10 µg per mL purified His-TRAF6 or His-TRAF2 in PBST with 5% milk powder for 4 h at RT; detection by TRAF-specific antibodies; settings: both partners purified
[8] = biological target: T5, His-TRAF6_(310-522) R392A; assay: AlphaScreen or HTRF; AlphaScreen PPI assay: His-TRAF and GST-LMP1, GST-CD40 or GST-RANK in PBS with 0.5% BSA and 0.1% Tween-20, 1 h at RT; standard 300 nM His-TRAF and 100 nM GST protein if not indicated otherwise; for KD His-TRAF6 at different concentrations, fit one site-specific binding with hill slope; settings: both partners purified
[9] = biological target: T6, His-TRAF6_(310-522) K469A; assay: as above; settings: both partners purified
[10] = biological target: B2; assay: as above; settings: both partners purified
[11] = biological target: T7, TRAF6_(346-504) for NMR; assay: NMR titration; settings: both partners purified
[12] = biological target: T1, His-TRAF6_(310-522); assay: competition with GST-CD40(216-277)
[13] = biological target: B2; assay: AlphaScreen or HTRF; AlphaScreen PPI assay in competition: GST-LMP1 or GST-CD40 with His-TRAF6 (dose-response of TRAF6 inhibitor or control peptide, 4-parameter fit) or GST-LMP1 with His-TRAF2 (30 µM peptide); settings: both partners purified

GGGPYAQGEDARMLSLVSKTEIEEDSFRQMPTQDEYMDRPSQ (domain or fragment) [GST-RANK_(314-355) E346Q] showed a Kd [1] of 15.6 nM.

B1: binds [2].

With B2 the “fold reduction of affinity against wild-type LMP1” value [3] was 1.8 fold, the “factor of reduction of affinity against wild-type CD40” value [4] was 4.3 fold and the “factor of reduction of affinity against wild-type RANK” value [5] was 2 fold. It also gave a Kd [6] of 73.9 nM.

B3: binds [7].

B4 was tested, and the binding result [8] was “binds”, the binding result [9] was “binds” and the Kd [10] was 17.1 nM.

B5: binds [7].

For B6, the binding result [9] was “binds” and the Kd [10] was 73.2 nM.

GPVQLSYYD (source: unlabeled peptide (PSL)) [LMP1 peptide G378PVQLSYYD]: binds [11].

For B7, the IC50 [12] was 546 nM and the IC50 [13] was 177 nM.

B8: binds [2].

Source: publication PMC10776578, “Epstein-Barr virus-driven B cell lymphoma mediated by a direct LMP1-TRAF6 complex” (Nature Communications, 2024)
